# Laboratory results as given in paper PMC10907219, “Leishmania profilin interacts with actin through an unusual structural mechanism to control cytoskeletal dynamics in parasites” (The Journal of Biological Chemistry, 2024).
# B1: Leishmania major profilin (LmProfilin), wild type (natural protein)
# chain: SWQAYVDDSLIGSGNMHSAAIIGAADGSYWAYGGSYVPQPEEVQHIQKCLSDFSFVQSSGVNIYGVKFFGLQCGTDGDCKYIFFKKGAAGGCIYTTKQAFIVAVYGNPGDTSSLQQDLEKNTAHAVTVNPADCNTTVKRIADYLIKLGY
# notes: Leishmania major profilin, TriTrypDB LmjF.32.0520, UniProt Q4Q5N1; codon-optimised synthetic gene in pCoofy3; also called WT LmProfilin; LmProf-WT; source: E. coli BL21(DE3), purified (Ni-NTA, tag cleavage with 3C-PreScission protease, gel filtration); not shown: His6, N-terminal, cleaved; GST, N-terminal, cleaved
# B2: decamer poly-L-proline peptide (peptide)
# peptide: PPPPPPPPPP
# notes: ten L-prolines written out from these words; also called poly-L-proline decamer; polyproline decamer; source: synthetic peptide, bought: CASLO ApS
# How the values were obtained:
# [1] = target: Leishmania major actin (LmActin), ATP-actin monomer (UniProt P45520); assay: ITC; settings: three independent ITC experiments for each protein; parent: 93.5
# [2] = target: Leishmania major actin (LmActin), ATP-actin monomer (Leishmania major) (UniProt P45520); assay: ITC; LmActin (14-19 μM) in the sample cell, profilin (150 μM) in the syringe; 22 °C; G-buffer (2 mM Tris pH 7.5, 0.5 mM β-mercaptoethanol, 0.2 mM CaCl2, 0.2 mM ATP); single set of sites model; three independent experiments
# [3] = target: T1, Leishmania major actin (LmActin), ATP-actin monomer (Leishmania major, UniProt P45520 1-376, ATP-bound with Ca2+ (G-buffer), monomeric; C-terminal beta-thymosin-His10 tag removed by chymotrypsin; initiator Met absent as in the 8C47 entity (equals Q9U1E8 2-376)); assay: crystal structure; LmProfilin and LmActin mixed at ~1:1 molar ratio, 4.5 to 6.5 mg/ml, sitting drop; 0.1 M Bis-Tris pH 5.5, PEG4000 26% (w/v), 0.2 M NaCl; ATP-actin monomer with Ca2+; settings: both partners purified
# [4] = target: T1, Leishmania major actin (LmActin), …; assay: ITC; LmActin (14-19 μM) in the sample cell, profilin (150 μM) in the syringe; 22 °C; G-buffer (2 mM Tris pH 7.5, 0.5 mM β-mercaptoethanol, 0.2 mM CaCl2, 0.2 mM ATP); single set of sites model; three independent experiments; settings: both partners purified
# [5] = target: B1; assay: other fluorescence titration; intrinsic tryptophan fluorescence of profilin (1 μM) with 3 to 3156 μM poly-L-proline decamer; room temperature; 20 mM Hepes pH 8.0, 50 mM NaCl; excitation 295 nm; OneSiteBind fit; settings: both partners purified
molecule,measurement,setting,value
"Leishmania major profilin (LmProfilin), wild type (from UniProt Q4Q5N1) L115S; L119S",Kd,[1],2.74 µM
LmProfilin-K68A (from UniProt Q4Q5N1 2-150) (natural protein),Kd,[2],3 µM
LmProfilin-WH2-SS (Leu115 and Leu119 replaced by serines) (from UniProt Q4Q5N1 2-150) (natural protein),fold reduction of affinity against WT profilin,[2],25 fold
LmProfilin-Y6A (from UniProt Q4Q5N1 2-150) (natural protein),Kd,[2],0.09 µM
LmProfilin-ΔWH2 (entire WH2-like motif deleted) (from UniProt Q4Q5N1 2-150) (natural protein),fold reduction of affinity against WT profilin,[2],25 fold
B1,stoichiometry N,[3],1
same,Kd,[4],~0.09 µM
B2,Kd,[5],263 µM
